Test results: US20250257332A1, “TRUNCATED AND FUSION PROTEINS” (Monash University, priority 2021, published 2025)
“Also recorded” adds a separate entry of the source.

Tests used:
recombinant mouse CCR5 = biological target: T1, recombinant mouse CCR5 (Mus musculus, UniProt P51682); test: NAMPT competitive binding to CCR5 (ELISA)
T1 construct: purchased MyBioSource
Experimental: hrNAMPT competitive binding to mrCCR5: ELISA plates (Medium binding, Greiner Bio-One) were coated with 1% BSA or 20 nM of recombinant mouse CCR5 (MyBioSource) in PBS overnight at 4° C. Then, wells were blocked for 1 h at room temperature with 1% BSA in PBS containing 0.05% Tween-20 (PBS-T). Wells were washed 3 times with PBS-T and further incubated with hNAMPTcif at increasing concentration (0 nM to 100 nM) for 1 h in PBS-T with 0.1% BSA containing 100 nM hrNAMPT (1) (Peprotech). Bound hrNAMPT (1) molecules were detected using a biotinylated antibody for NAMPT and HRP-streptavidin (Human PBEF/Visfatin DuoSet ELISA, R&D Systems). Signals obtained on BSA-coated wells were used to remove non-specific binding for each hrNAMPT concentrations to obtain specific binding values. Specific binding data were fitted by non-linear regression with Prism 7 to obtain the half maximal inhibitory concentration (IC50) of hNAMPTnif using A450nm=A450nmMin+(A450nmMax−A450nmMin)/(1+10^(X-LogIC50)).

[1] = system: C2C12 murine myoblast cells; test: C2C12 cell proliferation, CyQuant Proliferation Assay kit; type: cell-based, mouse; details: 48 hours
Experimental: FIG. 7. Human NAMPT variants stimulate muscle progenitor proliferation. C2C12 mouse myoblasts were treated with 20 nM full length NAMPT (NAMPT) or NAMPT variants for (NAMPTxxx-xxx, where xxx are amino acid numbers) 48 hours. Quantification of cell proliferation was performed using CyQuant Proliferation Assay kit. […] Box and whiskers denote median with minimum and maximum values. n=4-5 independent experiments per protein. Statistical significance is indicated as exact p-value. […] Significance between conditions were analysed by one-way ANOVA with Tukey post-hoc test.
Human NAMPTcif (hNAMPTcif) and truncated variants of hNAMPTcif were designed by progressively removing N-terminal regions containing positively charged amino acids. Four truncations were produced and numbered T1 to T4. Recombinant protein was produced using a bacterial expression system. hNAMPTcif variants were purified by FPLC using His-tag affinity purification. Cell proliferation assays were performed using C2C12 murine myoblast cells treated with purified recombinant hNAMPTcif variants, as well as full length NAMPT. Cells were treated with 10 nM of recombinant protein for 48 hours in DMEM supplemented with 2% foetal bovine serum at 37° C., 5% CO2. PBS treatment was used as a negative control. 10% foetal bovine serum was used as positive control. Quantification of proliferation was performed using commercially-available CyQuant Proliferation Assay kit (Thermo Fisher Scientific) according to manufacturer's instructions and read using a Synergy H1 plate reader (BioTek). Data were presented as percentage increase versus.
The heparin-binding sequence of placenta growth factor 2 (PIGF2) was fused to the N-terminus of NAMPTcif and produced using a bacterial expression system. PIGF-NAMPTcif was purified by FPLC using His-tag affinity purification followed by size exclusion chromatography. Cell proliferation assays were performed using C2C12 murine myoblast cells treated with purified recombinant NAMPTcif and full length NAMPT. Cells were treated with 2 nM, 10 nM and 20 nM concentrations of recombinant protein for 48 hours in DMEM supplemented with 2% foetal bovine serum at 37° C., 5% CO2. PBS treatment was used as a negative control. 10% foetal bovine serum was used as positive control. Quantification of proliferation was performed using commercially-available CyQuant Proliferation Assay kit (Thermo Fisher Scientific) according to manufacturer's instructions and read using a Synergy H1 plate reader (BioTek). Data were presented as percentage increase versus negative control. A two-tailed unpaired t-test was used to determine statistical significance.

TLR4 = biological target: T2, TLR4 (Homo sapiens, UniProt O00206); test: TLR4 signalling assay in HEK-Blue TLR4 reporter cells; type: cell-based; details: 19 nM; 24 hours; plus 5 ug/ml polymyxin B; listed as NAMPTcif
T2 construct: host or cells: HEK-Blue TLR4 reporter cell line
T2 sequence (O00206 24-839): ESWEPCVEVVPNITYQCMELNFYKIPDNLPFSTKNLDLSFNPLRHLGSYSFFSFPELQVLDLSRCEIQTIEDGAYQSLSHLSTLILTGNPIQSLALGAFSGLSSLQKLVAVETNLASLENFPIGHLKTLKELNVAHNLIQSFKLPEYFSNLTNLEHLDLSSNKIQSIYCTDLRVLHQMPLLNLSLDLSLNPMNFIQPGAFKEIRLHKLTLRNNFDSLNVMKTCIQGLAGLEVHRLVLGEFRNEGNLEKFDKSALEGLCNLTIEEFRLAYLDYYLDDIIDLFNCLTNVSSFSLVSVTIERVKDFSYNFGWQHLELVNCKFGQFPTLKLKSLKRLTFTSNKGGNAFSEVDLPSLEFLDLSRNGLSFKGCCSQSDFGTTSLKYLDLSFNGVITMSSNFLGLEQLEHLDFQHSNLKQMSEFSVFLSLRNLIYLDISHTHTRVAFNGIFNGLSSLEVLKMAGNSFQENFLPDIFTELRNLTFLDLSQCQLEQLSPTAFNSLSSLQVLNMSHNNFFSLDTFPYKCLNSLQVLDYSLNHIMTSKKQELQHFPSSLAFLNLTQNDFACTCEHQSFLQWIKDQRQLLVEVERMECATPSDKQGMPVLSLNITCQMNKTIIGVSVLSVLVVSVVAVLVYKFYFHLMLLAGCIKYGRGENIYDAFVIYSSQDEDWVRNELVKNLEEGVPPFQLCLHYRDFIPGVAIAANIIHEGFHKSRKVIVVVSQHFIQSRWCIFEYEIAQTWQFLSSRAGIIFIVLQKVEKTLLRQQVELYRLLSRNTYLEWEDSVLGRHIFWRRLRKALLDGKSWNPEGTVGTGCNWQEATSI
T2 sequence (Q9Y6Y9 17-160 partner limits assumed): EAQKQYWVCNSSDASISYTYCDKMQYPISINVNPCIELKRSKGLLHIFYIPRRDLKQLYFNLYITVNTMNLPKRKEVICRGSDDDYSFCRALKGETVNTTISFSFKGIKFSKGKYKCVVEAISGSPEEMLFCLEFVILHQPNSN
Experimental: TLR4 receptor activation was assayed using the HEK-Blue TLR4 reporter cell line (InvivoGen). In this cell line, TLR4 and downstream NFκB signalling induces expression and secretion of alkaline phosphatase that can be quantified via colorimetric assay. HEK-Blue cells were treated for 24 hours with 19 nM of NAMPTcif or PIGF-NAMPTcif plus 5 ug/ml polymyxin B to ensure no TLR4 activation by any trace amounts of endotoxin. TLR4 activity was reported as the equivalent amount of activation by bacterial lipopolysaccharides (LPS), thus a standard curve was generated by serial dilutions of LPS from 0.01 to 20 ng/ml. Detection of alkaline phosphatase activity was performed using a QUANTI-Blue kit (InvivoGen) according to manufacturer's instructions and plates were read using a Synergy H1 plate reader (BioTek). Data were presented as equivalent LPS concentration in ng/ml. A one-way ANOVA with Dunnett's multiple comparisons test was performed to determine statistical significance.

[2] = system: Human primary satellite cells; test: Human primary satellite cell proliferation, CyQuant; type: cell-based; details: 20 nM; 48 hours; media with IGF-1 and FGF-2
Experimental: (§1) FIG. 8. Human NAMPT variants stimulate human satellite cell proliferation. Human primary satellite cells were treated with 20 nM full length NAMPT (NAMPT) or NAMPT variants (NAMPTxxx-xxx, where xxx are amino acid numbers) for 48 hours. The media contained the growth factors IGF-1 and FGF-2 as well. Quantification of cell proliferation was performed using CyQuant Proliferation Assay kit. […] Treatment with 20% FBS was used as a positive control. Box and whiskers denote median with minimum and maximum values. n=6-10 independent experiments per protein. Statistical significance is indicated as p-value and determined by one-sample t-test.
The inventors next sought to compare the activity of full length NAMPT, NAMPT402-491 and NAMPT422-491 on human satellite cell proliferation. Human primary satellite cells were treated with 20 nM full length NAMPT (NAMPT) or NAMPT402-491 and NAMPT422-491 for 48 hours.

[3] = system: Human primary endothelial cells derived from umbilical vein; test: Human primary endothelial cell proliferation, CyQuant; type: cell-based; details: 20 nM; 48 hours
Experimental: as §1, with “9.” for “8.”, “endothelial” for “satellite”, “cells derived from umbilical vein” for “cells”, “hours.” for “hours. The media contained the growth factors IGF-1 and FGF-2 as well.”, “10%” for “20%”, “n=6” for “n=6-10”
Similarly, the inventors next investigated the activity of full length NAMPT, NAMPT402-491 and NAMPT422-491 on human endothelial cell proliferation. Human endothelial cells were derived from umbilical vein and treated with 20 nM full length NAMPT (NAMPT) or NAMPT variants for 48 hours.

[4] = system: needle-stab muscle injury in zebrafish larvae; test: Larval zebrafish muscle injury and EdU pulse-chase; type: in vivo; details: 57 nM in Ringer's solution immediately after injury at 4 dpf; EdU at 2 dpi
Experimental: Zebrafish larvae (4 dpf) were anaesthetized in 0.01% tricaine (MS-222) (Sigma-Aldrich) in Ringer's solution. Needle-stab injury was carried out in the dorsal myotome, consisting in a single 30-gauge needle puncture that generates an extensive injury with many damaged muscle fibres. Nampt fragment treatments were carried out by incubating 4 dpf needle-stab-injured larvae in 57 nM Nampt in Ringer's solution immediately after injury. Needle-stab-injured larvae at 6 dpf (2 dpi) were transferred into Ringer's solution containing 50 μg ml-1 EdU (Thermo Fisher Scientific) for 1 h and chased for a further 1.5 h before fixation. Samples were developed using the Click-iT EdU Alexa Fluor 647 imaging Kit (Thermo Fisher Scientific) following the manufacturer's protocol, followed by a phalloidin immunostaining (Thermo Fisher Scientific). EdU+ cells in a region encompassing two myotomes on either side of the injury were quantified as the number of EdU+ cells outside the injury region. EdU+ cells in the caudal haematopoietic tissue were excluded from this analysis. Statistical analysis has been conducted using Two-way ANOVA with Tuckey's multiple comparison test.

T1 sequence (P51682 whole entry): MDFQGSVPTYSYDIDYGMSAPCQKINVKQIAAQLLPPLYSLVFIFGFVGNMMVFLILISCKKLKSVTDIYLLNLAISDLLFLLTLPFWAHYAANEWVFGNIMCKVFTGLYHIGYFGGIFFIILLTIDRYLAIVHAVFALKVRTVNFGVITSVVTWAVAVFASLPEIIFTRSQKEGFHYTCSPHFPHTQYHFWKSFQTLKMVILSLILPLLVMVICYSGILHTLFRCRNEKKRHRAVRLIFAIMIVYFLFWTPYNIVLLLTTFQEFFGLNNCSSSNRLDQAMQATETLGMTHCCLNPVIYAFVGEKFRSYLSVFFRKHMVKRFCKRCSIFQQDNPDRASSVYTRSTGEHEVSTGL

- inhibition of NAMPT binding to CCR5 (recombinant mouse CCR5): inhibits the binding of NAMPT to CCR5
B1: NAMPT402-491: Human NAMPT cytokine finger, residues 402-491 of full length NAMPT, SEQ ID NO: 1 (protein, listed as Homo sapiens)
chain: SYVVTNGLGINVFKDPVADPNKRSKKGRLSLHRTPAGNFVTLEEGKGDLEEYGQDLLHTVFKNGKVTKSYSFDEIRKNAQLNIELEAAHH
- cell proliferation, percentage increase vs PBS-treated control ([1]; 10 nM, compared with full length NAMPT, listed as cif): stimulates satellite cell proliferation in a dose-dependent manner
- cell proliferation, percentage increase vs PBS-treated control ([1]; 10 nM, compared with full length NAMPT, listed as hNAMPTcif): enhanced stimulated satellite cell proliferation compared to full length hNAMPT
- cell proliferation, percentage increase vs PBS-treated control ([1]; 20 nM, compared with full-length NAMPT): enhanced cellular proliferation compared to full-length NAMPT
- TLR4 activation (equivalent LPS concentration) (TLR4): does not induce TLR4 activity compared to full length NAMPT; also recorded: abrogated TLR4 activity
- satellite cell proliferation, percentage increase vs PBS-treated control [2]: increased satellite cell proliferation compared to full length NAMPT
- endothelial cell proliferation, percentage increase vs PBS-treated control [3]: increased endothelial cell proliferation compared to full length NAMPT and NAMPT422-491
- cell proliferation (EdU-positive cells) within the injury zone [4]: significant increase in cell proliferation within the injury zone
